According to patent publication US20120225464A1, “Specific Arabinose Transporter of the Plant Arabidopsis Thaliana for the Construction of Pentose-Fermenting Yeasts” (priority 2011, published 2012):

T1: Gal2 (Saccharomyces cerevisiae, UniProt P13181)
T1 construct: expressed in transfected cells; host or cells: S. cerevisiae strain MKY06 (all hexose transporters incl. gal2 deleted)
T1 sequence (P13181 1-574): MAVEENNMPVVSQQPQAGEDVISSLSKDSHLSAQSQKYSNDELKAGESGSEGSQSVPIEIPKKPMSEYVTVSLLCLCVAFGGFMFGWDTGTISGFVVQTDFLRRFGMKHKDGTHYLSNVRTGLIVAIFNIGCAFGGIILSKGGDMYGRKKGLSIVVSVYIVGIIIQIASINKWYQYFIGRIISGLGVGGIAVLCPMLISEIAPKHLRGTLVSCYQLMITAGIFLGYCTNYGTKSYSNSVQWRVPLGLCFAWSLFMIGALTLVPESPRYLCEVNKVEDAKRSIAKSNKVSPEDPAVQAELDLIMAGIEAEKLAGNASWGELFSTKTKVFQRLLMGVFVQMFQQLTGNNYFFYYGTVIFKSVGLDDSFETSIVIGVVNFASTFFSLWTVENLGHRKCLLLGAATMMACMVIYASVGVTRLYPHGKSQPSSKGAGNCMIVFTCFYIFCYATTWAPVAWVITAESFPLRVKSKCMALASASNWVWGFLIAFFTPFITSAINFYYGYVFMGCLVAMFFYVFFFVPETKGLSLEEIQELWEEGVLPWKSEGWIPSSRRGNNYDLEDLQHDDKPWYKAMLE

T2: Stp2 (Arabidopsis thaliana, UniProt Q9LNV3)
T2 construct: The open reading frame (ORF) of AtStp2 was amplified and cloned behind the shortened strong HXT7 promoter; expressed in transfected cells; host or cells: S. cerevisiae strain MKY06 (all hexose transporters deleted), plasmid pTHStp2
T2 sequence (Q9LNV3 1-498): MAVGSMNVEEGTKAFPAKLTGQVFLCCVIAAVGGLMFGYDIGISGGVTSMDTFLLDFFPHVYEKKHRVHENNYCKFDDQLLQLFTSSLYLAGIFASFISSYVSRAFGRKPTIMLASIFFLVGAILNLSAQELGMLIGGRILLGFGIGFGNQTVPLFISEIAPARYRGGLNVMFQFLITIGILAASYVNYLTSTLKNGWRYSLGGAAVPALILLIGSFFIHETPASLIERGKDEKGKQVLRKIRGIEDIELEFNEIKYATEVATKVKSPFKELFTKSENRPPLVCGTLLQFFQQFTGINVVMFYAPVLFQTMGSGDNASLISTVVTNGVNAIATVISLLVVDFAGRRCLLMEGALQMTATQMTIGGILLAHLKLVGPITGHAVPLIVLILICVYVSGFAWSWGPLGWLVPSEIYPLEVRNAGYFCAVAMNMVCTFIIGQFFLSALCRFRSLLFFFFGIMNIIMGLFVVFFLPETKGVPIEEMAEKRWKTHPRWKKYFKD


What was measured:
Assay type in all cases: cell-based, S. cerevisiae
strain MKY06-3P = experiment: Sugar consumption / fermentation analysis by HPLC in SC medium under aerobic conditions; settings: transporter overexpressed
Experimental: (§1) Fermentation analysis of the MKY06-3P containing the plasmids p426-opt-AraT-S (A) or pTHSTp2 (B) in SC medium with 2% glucose under aerobic conditions. As controls the strain MKY06-3P was used containing the plasmids pHL125^re (positive) or p426HXT7-6HIS (negative). The strains with the various plasmids were adducted in SC medium with 2% glucose and inoculated with an OD600nm=1 in 50 ml SC medium. The incubation took place in 300 ml shaking flasks under aerobic conditions at 30° C. Samples were taken several times during the 120 hours to determine the sugar concentration via HPLC analysis.
as §1, with “arabinose” for “glucose”, “analysis. […]” for “analysis.”
The samples taken in the tests were centrifuged for 10 min at 3000 R/min, in order to pellet the yeast cells. […] The sugar concentrations were measured by means of BioLC (Dionex). […]

Gal2 = biological target: T1, Gal2; experiment: Inhibition of Gal2-mediated L-arabinose uptake by added sugar; settings: addition of 10 mM of the sugar
Experimental: (§2) The initial rates of sugar uptake were measured as follows: a 50-0 aliquot of a sugar solution containing (1-^3H)-labeled L-arabinose, (U-^14C) labeled O-glucose (American Radiolabeled Chemicals Inc.) or (1-^14C) labeled D-galactose (Amersham) was incubated at 30° C. and was mixed with 100 μl of yeast suspensions having the same temperature, resulting in final sugar concentrations of 10 mM L-arabinose, D-glucose and D-galactose. For determination of L-arabinose uptake kinetics 0.1, 1, 5, 10, and 50 mM L-arabinose were used. After different time intervals 10 ml of ice-cold 100 mM potassium phosphate buffer at pH 6.5 with 500 mM. D-glucose was added, and the suspension was immediately filtrated using Durapore® membrane filters (0.22 μm pore size, Millipore). The filter was washed two times with 10 ml of cold potassium phosphate buffer with 500 mM D-glucose. […] Rotiszint® eco plus (Roth) and the radioactivity measured in a scintillation counter. Uptake of radioactivity was nearly linear in time intervals up to 2 minutes. […] Dry weight was determined by filtering 10 ml of the culture through a pre-weighted nitrocellulose filter (0.45 μm pore size; Roth, Germany). […] KM and vmax values were calculated using the program GraphPad Prism 5.0.
(§3) For L-arabinose, uptake kinetics were determined by measuring L-arabinose uptake at various concentrations between 0.1 and 50 mM during 2-minute time intervals. […]

Stp2 = biological target: T2, Stp2; experiment: Inhibition of Stp2-mediated L-arabinose uptake by added sugar; settings: addition of 10 mM of the sugar
Experimental: as §2, §3

[1] = system: D-glucose uptake, strain MKY06; experiment: Initial rate of D-glucose uptake with radioactively labeled sugar in strain MKY06 overexpressing the transporter; settings: 10 mM D-glucose, 1 minute; empty-vector background subtracted
Experimental: Initial rates of sugar uptake of strain MKY06 expressing Stp2 (AtStp2) or Gal2 (ScGal2). Cells were grown on D-galactose or maltose (empty vector), harvested and incubated with the radioactively labeled sugars: 10 mM L-arabinose (A), 10 mM D-galactose (B) and 10 mM D-glucose (C) for 2 minutes (L-arabinose) or 1 minute (D-galactose, D-glucose). The background values determined with cells containing the empty vector were subtracted.
as §2, with “used.” for “used. After different time intervals 10 ml of ice-cold 100 mM potassium phosphate buffer at pH 6.5 with 500 mM. D-glucose was added, and the suspension was immediately filtrated using Durapore® membrane filters (0.22 μm pore size, Millipore). The filter was washed two times with 10 ml of cold potassium phosphate buffer with 500 mM D-glucose.”, “5.0. […]” for “5.0.”

[2] = system: L-arabinose uptake, strain MKY06; experiment: L-arabinose uptake kinetics with radioactively labeled sugar in strain MKY06 overexpressing the transporter; settings: L-arabinose as the substrate; 0.1-50 mM, 2-minute intervals
Experimental: The initial rates of sugar uptake were measured as follows: a 50-0 aliquot of a sugar solution containing (1-^3H)-labeled L-arabinose, (U-^14C) labeled O-glucose (American Radiolabeled Chemicals Inc.) or (1-^14C) labeled D-galactose (Amersham) was incubated at 30° C. and was mixed with 100 μl of yeast suspensions having the same temperature, resulting in final sugar concentrations of 10 mM L-arabinose, D-glucose and D-galactose. For determination of L-arabinose uptake kinetics 0.1, 1, 5, 10, and 50 mM L-arabinose were used. After different time intervals 10 ml of ice-cold 100 mM potassium phosphate buffer at pH 6.5 with 500 mM. D-glucose was added, and the suspension was immediately filtrated using Durapore® membrane filters (0.22 μm pore size, Millipore). The filter was washed two times with 10 ml of cold potassium phosphate buffer with 500 mM D-glucose. Filters were transferred to 5 ml scintillation vials containing 4.5 ml. Rotiszint® eco plus (Roth) and the radioactivity measured in a scintillation counter. Uptake of radioactivity was nearly linear in time intervals up to 2 minutes. The results shown are average values for two to three independent experiments. Dry weight was determined by filtering 10 ml of the culture through a pre-weighted nitrocellulose filter (0.45 μm pore size; Roth, Germany). The filters were washed with demineralized water, dried in a microwave oven for 20 minutes at 140 W, and weighted again. KM and vmax values were calculated using the program GraphPad Prism 5.0.
For L-arabinose, uptake kinetics were determined by measuring L-arabinose uptake at various concentrations between 0.1 and 50 mM during 2-minute time intervals. While Gal2 turned out to transport L-arabinose with low affinity and high capacity, Stp2 mediated uptake of L-arabinose with low capacity but high affinity (Table 1).

Molecule	Glucose transport in the strain MKY06-3P (strain MKY06-3P)	Inhibition of L-arabinose uptake (Gal2) (Gal2)	Inhibition of L-arabinose uptake (Stp2) (Stp2)	D-glucose uptake rate [1]	Km [2]	vmax [2]
AraT	small amounts of glucose					
O=C[C@H](O)[C@@H](O)[C@H](O)[C@H](O)CO [D-glucose]		nearly completely inhibited	nearly completely inhibited			
O=C[C@H](O)[C@@H](O)[C@@H](O)[C@H](O)CO [D-galactose]		nearly completely inhibited	nearly completely inhibited			
Gal2: S. cerevisiae galactose permease Gal2, known to also transport L-arabinose (protein, UniProt P13181 1-574, looked up) Galactose transporter: MAVEENNMPVVSQQPQAGEDVISSLSKDSHLSAQSQKYSNDELKAGESGSEGSQSVPIEIPKKPMSEYVTVSLLCLCVAFGGFMFGWDTGTISGFVVQTDFLRRFGMKHKDGTHYLSNVRTGLIVAIFNIGCAFGGIILSKGGDMYGRKKGLSIVVSVYIVGIIIQIASINKWYQYFIGRIISGLGVGGIAVLCPMLISEIAPKHLRGTLVSCYQLMITAGIFLGYCTNYGTKSYSNSVQWRVPLGLCFAWSLFMIGALTLVPESPRYLCEVNKVEDAKRSIAKSNKVSPEDPAVQAELDLIMAGIEAEKLAGNASWGELFSTKTKVFQRLLMGVFVQMFQQLTGNNYFFYYGTVIFKSVGLDDSFETSIVIGVVNFASTFFSLWTVENLGHRKCLLLGAATMMACMVIYASVGVTRLYPHGKSQPSSKGAGNCMIVFTCFYIFCYATTWAPVAWVITAESFPLRVKSKCMALASASNWVWGFLIAFFTPFITSAINFYYGYVFMGCLVAMFFYVFFFVPETKGLSLEEIQELWEEGVLPWKSEGWIPSSRRGNNYDLEDLQHDDKPWYKAMLE				4.7 nmol/min/mg DM	57 mM	2.2 +/− 0.26 nmol/min/mg DM
Stp2: transporter Stp2 from Arabidopsis thaliana, a protein of 498 amino acids (SEQ ID NO. 1) (protein, listed as Arabidopsis thaliana) MAVGSMNVEEGTKAFPAKLTGQVFLCCVIAAVGGLMFGYDIGISGGVTSMDTFLLDFFPHVYEKKHRVHENNYCKFDDQLLQLFTSSLYLAGIFASFISSYVSRAFGRKPTIMLASIFFLVGAILNLSAQELGMLIGGRILLGFGIGFGNQTVPLFISEIAPARYRGGLNVMFQFLITIGILAASYVNYLTSTLKNGWRYSLGGAAVPALILLIGSFFIHETPASLIERGKDEKGKQVLRKIRGIEDIELEFNEIKYATEVATKVKSPFKELFTKSENRPPLVCGTLLQFFQQFTGINVVMFYAPVLFQTMGSGDNASLISTVVTNGVNAIATVISLLVVDFAGRRCLLMEGALQMTATQMTIGGILLAHLKLVGPITGHAVPLIVLILICVYVSGFAWSWGPLGWLVPSEIYPLEVRNAGYFCAVAMNMVCTFIIGQFFLSALCRFRSLLFFFFGIMNIIMGLFVVFFLPETKGVPIEEMAEKRWKTHPRWKKYFKD				< 0.01 nmol/min/mg DM	4.5 mM	0.6 +/− 0.08 nmol/min/mg DM
